This note sets out measurements from US20230346966A1.

In the experiment the target is recombinant human TfR1 (human) (UniProt P02786). The experiment is described as follows: SPR (Carterra LSA), IgG captured, TfR1 injected, 25 C.
recombinant human TfR1 (human), sequence (P02786 89-760 limits assumed): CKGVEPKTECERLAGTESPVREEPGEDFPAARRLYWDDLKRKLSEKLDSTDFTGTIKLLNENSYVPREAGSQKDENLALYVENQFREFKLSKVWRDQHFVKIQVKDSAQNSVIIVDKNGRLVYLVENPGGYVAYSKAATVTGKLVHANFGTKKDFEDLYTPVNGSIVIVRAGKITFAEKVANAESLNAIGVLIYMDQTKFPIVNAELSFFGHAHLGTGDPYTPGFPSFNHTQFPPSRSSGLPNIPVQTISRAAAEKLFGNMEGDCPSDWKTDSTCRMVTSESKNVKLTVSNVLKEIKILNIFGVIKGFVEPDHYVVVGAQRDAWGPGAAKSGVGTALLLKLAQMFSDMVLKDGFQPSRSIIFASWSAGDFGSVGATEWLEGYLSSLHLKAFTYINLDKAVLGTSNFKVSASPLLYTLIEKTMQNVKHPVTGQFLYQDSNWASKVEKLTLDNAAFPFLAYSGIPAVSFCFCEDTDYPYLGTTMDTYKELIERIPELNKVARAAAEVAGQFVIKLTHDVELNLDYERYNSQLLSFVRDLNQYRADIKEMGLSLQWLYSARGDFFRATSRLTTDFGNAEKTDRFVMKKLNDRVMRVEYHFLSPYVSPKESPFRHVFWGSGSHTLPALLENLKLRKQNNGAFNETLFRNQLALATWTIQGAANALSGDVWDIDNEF

A word on the Kd: it is the concentration at which binding is half-saturated. The kon is the second-order rate constant of association. In the case of OKT9 mIgG (control) (antibody), the Kd is 0.536 nM and the kon came to 774000 M⁻¹ s⁻¹.
